The record followed here is paper PMC11997057, “PIN1-SUMO2/3 motif suppresses excessive RNF168 chromatin accumulation and ubiquitin signaling to promote IR resistance” (Nature Communications, 2025).

For test [1], the target named is PIN1 (UniProt Q13526). Briefly: native mass spectrometry, 1:5 protein:peptide. The settings on record: reference: unphosphorylated peptide; sites T208.
Test [2] deals with PIN1 WW domain (UniProt Q13526). Briefly: GST pull-down from cell lysate. The settings on record: reference: myc-RNF168 wild type; sites T208.
Test [3] has as its target T1, full-length PIN1 (recombinant, tag cleaved) (UniProt Q13526 1-163).
T1 construct: peptidyl-prolyl isomerase PIN1, full length; also called recombinant PIN1; tag-cleaved PIN1; source: E. coli Rosetta 2(DE3) pLysS, auto-induction, purified (IMAC), tag cleaved with TEV protease; not shown: His6, N-terminal, cleaved
Nature of the test: native MS; PIN1 2.5 uM and peptide 12.5 uM (1:5 molar ratio) incubated on ice in 100 mM ammonium acetate pH 6.8; nanoelectrospray, positive mode. The settings on record: both partners purified.

Non-standard residues stand in square brackets, D forms with d. No end group written: not given here. pT = C[C@@H](OP(=O)(O)O)[C@H](N)C(=O)O

Regarding “RNF168 204-210 (from UniProt Q8IYW5) pT208 peptide”, the “binding against the reference” value in test [1] is recorded as “stronger”.
As for RNF168 (from UniProt Q8IYW5) T208A, in test [2], the “binding against the reference” value was “weaker”.

B1: phosphorylated RNF168 peptide S204-K210, SDPV(pT)PK (peptide)
peptide: SDPV[pT]PK
notes: end groups not known; also called phospho-RNF168 peptide; pT208-RNF168 peptide; source: synthetic peptide, bought: GenScript Biotech
Consider B1, for which, in test [3], the binding result is reported as “binds”.

B2: unphosphorylated RNF168 peptide S204-K210 (peptide)
peptide: SDPVTPK
notes: end groups not known; also called non-phosphorylated peptide of the T208 motif; source: synthetic peptide, bought: GenScript Biotech
As for B2, in test [3], the binding result is “binds”.
